Experimental data as given in patent US10130693B2, “Peptides, combination of peptides and scaffolds for use in immunotherapeutic treatment of various cancers” (Immatics Biotechnologies GmbH, priority 2015, dated 2018).

Key:
HLA-A*02:01 = HLA-A*02:01 (Homo sapiens, UniProt P04439, D140Y/D185E/D98H/E176V/E277Q/G131W/G231S/I119V/I121R/I166T/I218V/L300P/L318F/N151K/N90K/P208A/P217A/Q86G/Q94H/R138H/R169H/T345S); experiment: MHC binding assay, UV-ligand exchange with beta2m ELISA (exchange yield), HLA-A*02; conditions: binding to HLA-A*02 ranged by peptide exchange yield
Excerpt: Candidate peptides for T cell based therapies according to the present invention were further tested for their MHC binding capacity (affinity). The individual peptide-MHC complexes were produced by UV-ligand exchange, where a UV-sensitive peptide is cleaved upon UV-irradiation, and exchanged with the peptide of interest as analyzed. Only peptide candidates that can effectively bind and stabilize the peptide-receptive MHC molecules prevent dissociation of the MHC complexes. To determine the yield of the exchange reaction, an ELISA was performed based on the detection of the light chain (β2m) of stabilized MHC complexes. The assay was performed as generally described in Rodenko et al. (Rodenko et al., 2006).
96 well MAXISorp plates (NUNC) were coated over night with 2 ug/ml streptavidin in PBS at room temperature, washed 4× and blocked for 1 h at 37° C. in 2% BSA containing blocking buffer. […] Peptide-MHC monomers of the UV-exchange reaction were diluted 100 fold in blocking buffer. Samples were incubated for 1 h at 37° C., washed four times, incubated with 2 ug/ml HRP conjugated anti-β2m for 1h at 37° C., washed again and detected with TMB solution that is stopped with […]. Absorption was measured at 450 nm. Candidate peptides that show a high exchange yield (preferably higher than 50%, most preferred higher than 75%) are generally preferred for a generation and production of antibodies or fragments thereof, and/or T cell receptors or fragments thereof, as they show sufficient avidity to the MHC molecules and prevent dissociation of the MHC complexes.

HLA-A*24 = experiment: MHC binding assay, UV-ligand exchange with beta2m ELISA (exchange yield), HLA-A*24; design: species or system human; conditions: binding to HLA-A*24, UV-ligand exchange
Outline: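 Peptide–MHC complexes formed by UV-ligand exchange: a UV-cleavable peptide is replaced by the test peptide, and only binders keep the complex stable. Exchange yield read by streptavidin-capture ELISA on reactions diluted 100-fold, detected with HRP anti-β2m (2 ug/ml, 1 h, 37° C) and TMB at 450 nm.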

| Substance | Peptide exchange (MHC class I binding score) (HLA-A*02:01) | Peptide exchange (MHC class I binding score, peptide exchange yield) (HLA-A*24) |
| --- | --- | --- |
| 46 (SLAKHGIVAL; listed as Homo sapiens) [compound 46] | +++ (50%-75% = +++) |  |
| 324 (AIFDFCPSV; listed as Homo sapiens) [compound 324] | ++++ (>=75% = ++++) |  |
| 58 (ALDDSLTSL; listed as Homo sapiens) [compound 58] | ++ (20%-49% = ++) |  |
| 24 (FLWNGEDSAL; listed as Homo sapiens) [compound 24] | +++ (50%-75% = +++) |  |
| 25 (IQADDFRTL; listed as Homo sapiens) [compound 25] | ++ (20%-49% = ++) |  |
| 69 (GIYDGILHSI; listed as Homo sapiens) [compound 69] | +++ (50%-75% = +++) |  |
| 26 (KVDGVVIQL; listed as Homo sapiens) [compound 26] | +++ (50%-75% = +++) |  |
| 65 (KLDGICWQV; listed as Homo sapiens) [compound 65] | +++ (50%-75% = +++) |  |
| 321 (SLWFKPEEL; listed as Homo sapiens) [compound 321] | +++ (50%-75% = +++) |  |
| 1 (PLWGKVFYL; listed as Homo sapiens) [compound 1] | ++ (20%-49% = ++) |  |
| 338 (LLYDGKLSSA; listed as Homo sapiens) [compound 338] | ++ (20%-49% = ++) |  |
| 63 (TLSSERDFAL; listed as Homo sapiens) [compound 63] | + (<20% = +) |  |
| 329 (FAWEPSFRDQV; listed as Homo sapiens) [compound 329] | ++ (20%-49% = ++) |  |
| 90 (GAVAEEVLSSI; listed as Homo sapiens) [compound 90] | + (<20% = +) |  |
| 52 (ELLSSIFFL; listed as Homo sapiens) [compound 52] | +++ (50%-75% = +++) |  |
| 93 (SLLTQPIFL; listed as Homo sapiens) [compound 93] | +++ (50%-75% = +++) |  |
| 10 (KTLDVFNIIL; listed as Homo sapiens) [compound 10] | ++ (20%-49% = ++) |  |
| 37 (ALINDILGELVKL; listed as Homo sapiens) [compound 37] | +++ (50%-75% = +++) |  |
| 61 (HLPDFVKQL; listed as Homo sapiens) [compound 61] | ++ (20%-49% = ++) |  |
| 340 (SVAKTILKR; listed as Homo sapiens) [compound 340] | ++ (20%-49% = ++) |  |
| 55 (IASAIVNEL; listed as Homo sapiens) [compound 55] | ++ (20%-49% = ++) |  |
| 88 (ILLNTEDLASL; listed as Homo sapiens) [compound 88] | +++ (50%-75% = +++) |  |
| 311 (EYLQNLNHI; listed as Homo sapiens) [compound 311] |  | ++++ (>=75% = ++++) |
| 304 (EYNEVANLF; listed as Homo sapiens) [compound 304] |  | +++ (50%-75% = +++) |
| 385 (QYIEELQKF; listed as Homo sapiens) [compound 385] |  | +++ (50%-75% = +++) |
| 253 (IYGFFNENF; listed as Homo sapiens) [compound 253] |  | +++ (50%-75% = +++) |
| 364 (KYLNENQLSQL; listed as Homo sapiens) [compound 364] |  | +++ (50%-75% = +++) |
| 316 (VYFEGSDFKF; listed as Homo sapiens) [compound 316] |  | +++ (50%-75% = +++) |

Continued, values first:

| Peptide exchange (MHC class I binding score) (HLA-A*02:01) | Peptide exchange (MHC class I binding score, peptide exchange yield) (HLA-A*24) | Substance |
| --- | --- | --- |
| ++++ (>=75% = ++++) |  | 36 (KLYGIEIEV; listed as Homo sapiens) [compound 36] |
| +++ (50%-75% = +++) |  | 27 (KVFGDLDQV; listed as Homo sapiens) [compound 27] |
| +++ (50%-75% = +++) |  | 32 (ILADEAFFSV; listed as Homo sapiens) [compound 32] |
| +++ (50%-75% = +++) |  | 19 (TLLPTVLTL; listed as Homo sapiens) [compound 19] |
| ++++ (>=75% = ++++) |  | 31 (ALSDETKNNWEV; listed as Homo sapiens) [compound 31] |
| +++ (50%-75% = +++) |  | 29 (TLCNKTFTA; listed as Homo sapiens) [compound 29] |
| +++ (50%-75% = +++) |  | 6 (FLDPAQRDL; listed as Homo sapiens) [compound 6] |
| ++ (20%-49% = ++) |  | 11 (GVLKVFLENV; listed as Homo sapiens) [compound 11] |
| +++ (50%-75% = +++) |  | 85 (STLDGSLHAV; listed as Homo sapiens) [compound 85] |
| ++ (20%-49% = ++) |  | 335 (VLLAAGPSAA; listed as Homo sapiens) [compound 335] |
| +++ (50%-75% = +++) |  | 45 (VLGPTPELV; listed as Homo sapiens) [compound 45] |
| +++ (50%-75% = +++) |  | 62 (SLFNQEVQI; listed as Homo sapiens) [compound 62] |
| ++ (20%-49% = ++) |  | 60 (FLIDTSASM; listed as Homo sapiens) [compound 60] |
| +++ (50%-75% = +++) |  | 327 (SIGDIFLKY; listed as Homo sapiens) [compound 327] |
| ++ (20%-49% = ++) |  | 328 (SVDSAPAAV; listed as Homo sapiens) [compound 328] |
| +++ (50%-75% = +++) |  | 323 (ILSVVNSQL; listed as Homo sapiens) [compound 323] |
| ++ (20%-49% = ++) |  | 57 (VLISSTVRL; listed as Homo sapiens) [compound 57] |
| ++ (20%-49% = ++) |  | 35 (YVLPKLYVKL; listed as Homo sapiens) [compound 35] |

| Peptide exchange (MHC class I binding score) (HLA-A*02:01) | Peptide exchange (MHC class I binding score, peptide exchange yield) (HLA-A*24) | Substance |
| --- | --- | --- |
| +++ (50%-75% = +++) |  | 334 (GRADALRVL; listed as Homo sapiens) [compound 334] |
| +++ (50%-75% = +++) |  | 33 (LLLPLLPPLSPSLG; listed as Homo sapiens) [compound 33] |
| +++ (50%-75% = +++) |  | 3 (TLLGKQVTL; listed as Homo sapiens) [compound 3] |
| +++ (50%-75% = +++) |  | 83 (ELLEYLPQL; listed as Homo sapiens) [compound 83] |
| +++ (50%-75% = +++) |  | 53 (SLLSHVIVA; listed as Homo sapiens) [compound 53] |
| +++ (50%-75% = +++) |  | 38 (KMQEDLVTL; listed as Homo sapiens) [compound 38] |
| +++ (50%-75% = +++) |  | 87 (YLTEVFLHVV; listed as Homo sapiens) [compound 87] |
| ++++ (>=75% = ++++) |  | 22 (MLSDLTLQL; listed as Homo sapiens) [compound 22] |
| + (<20% = +) |  | 23 (AQTVVVIKA; listed as Homo sapiens) [compound 23] |
| +++ (50%-75% = +++) |  | 326 (SLLPLVWKI; listed as Homo sapiens) [compound 326] |
| +++ (50%-75% = +++) |  | 41 (FVLPLVVTL; listed as Homo sapiens) [compound 41] |
| ++ (20%-49% = ++) |  | 56 (KILDLTRVL; listed as Homo sapiens) [compound 56] |
| +++ (50%-75% = +++) |  | 20 (ALDGHLYAI; listed as Homo sapiens) [compound 20] |
| ++ (20%-49% = ++) |  | 92 (LLRGPPVARA; listed as Homo sapiens) [compound 92] |
|  | ++++ (>=75% = ++++) | 292 (FYPQIINTF; listed as Homo sapiens) [compound 292] |
|  | ++ (20%-49% = ++) | 215 (SYVASFFLL; listed as Homo sapiens) [compound 215] |
|  | +++ (50%-75% = +++) | 134 (AYIPTPIYF; listed as Homo sapiens) [compound 134] |
